In this assay the target is SARS-CoV-2 Omicron BA.4/5 spike (S) trimer, prefusion-stabilised ectodomain (SARS-CoV-2 (Omicron BA.4/5) | bacteriophage T4) (UniProt P0DTC2). The assay can be described thus: cryo-EM structure.

The record followed here is article PMC10267556.

In general, stoichiometry N refers to a count of units in the complex or per binding partner.

As for “SARS-CoV-2 Omicron BA.4/5 spike (S) trimer, prefusion-stabilised ectodomain (from UniProt P0DTC2 14-1208) (complex)”, the stoichiometry N is 3.
